Test results taken from patent CN111253486A (ZAI LAB SHANGHAI CO LTD, dated 2020).
Each block holds one binder with its values, some of them ahead of it.

Biological target: T1, human PD-1-his (recombinant human PD-1 extracellular domain with C-terminal polyhistidine tag) (human, UniProt Q15116 25-170)
T1 construct: extracellular domain; also called 人PD-1-his; hPD-1蛋白
Assay: SPR (Biacore 8K), antibody captured, antigen injected

T1 sequence (Q15116 25-170): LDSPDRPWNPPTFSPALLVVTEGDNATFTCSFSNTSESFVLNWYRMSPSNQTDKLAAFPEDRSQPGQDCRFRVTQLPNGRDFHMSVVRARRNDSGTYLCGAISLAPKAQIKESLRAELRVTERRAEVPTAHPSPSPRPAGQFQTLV

- Kd: 2.43 nM
- koff: 0.000295 s⁻¹
- kon: 122000 M⁻¹ s⁻¹
B1: murine anti-PD-1 antibody 56B3C11 (antibody, V domains shown)
VH: EVMLVESGGGLVQPGGSLKLSCAASGFTFNSYTMSWVRQTPEKRLEWVAYISFGGGDTYYPDTVKGRFTISRDNAKNTLYLQMNSLKSEDTAMYYCARQGNYEGAPFAYWGQGTLVTVSA
VL: DIQMTQTTSSLSASLGDRVTISCRASQDISNFLNWYQLKPDGTIKLLIYYTSRLHSGVPSRFSGSGSGTDYSLTITDLEQEDIATYLCQQGDMIPWTFGGGTKLEIK

- Kd: 1.16 nM
- koff: 0.000198 s⁻¹
- kon: 171000 M⁻¹ s⁻¹
B2: murine anti-PD-1 antibody 31G1E10 (antibody, V domains shown)
VH: EVKLVESGGGLVKPGGSLKLSCAASGFTFSSYGMSWVRQTPEKRLEWVATISGGGRDTYYPDSVKGRFTISRDNAKNNLYLQMNNLRSEDTALYYCARQRDSAWFAHWGQGTRVTVSA
VL: not shown
